{
  "source": "patent US20210130436A1",
  "note": "“And” between values parts separate entries of the source, which are not always exact repeats. Equal values may be shown once.",
  "data": [
    {"biological_target": "PD-1 (PDCD1) (Homo sapiens (Human)) (UniProt Q15116)", "sequence (Q15116 21-288)": "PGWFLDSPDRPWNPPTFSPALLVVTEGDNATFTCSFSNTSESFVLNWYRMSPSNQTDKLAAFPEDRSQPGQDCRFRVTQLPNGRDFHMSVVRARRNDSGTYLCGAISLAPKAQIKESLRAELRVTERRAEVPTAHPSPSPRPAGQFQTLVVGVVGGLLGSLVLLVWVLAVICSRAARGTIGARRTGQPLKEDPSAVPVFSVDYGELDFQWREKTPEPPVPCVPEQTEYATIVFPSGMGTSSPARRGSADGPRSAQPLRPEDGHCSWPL", "assay": "cell-based or functional assay", "values": [
      {"substance": "PD-L2 H15Q/C23S/I86T IgV-Fc (from UniProt Q9BQ51 20-121) (Fc fusion)", "IFN gamma levels pg/mL (MLR)": "1850 pg/mL"},
      {"substance": "PD-L2 H15Q/E44D/R76G/I85F IgV-Fc (from UniProt Q9BQ51 20-121) (Fc fusion)", "IFN gamma levels pg/mL (MLR)": "1390 pg/mL"},
      {"substance": "PD-L2 H15Q/K65R IgV-Fc (from UniProt Q9BQ51 20-121) (Fc fusion)", "IFN gamma levels pg/mL (MLR)": "1510 pg/mL"},
      {"substance": "PD-L2 H15Q/L33H/S67L/R76G/Q82R/V89D IgV-Fc (from UniProt Q9BQ51 20-121) (Fc fusion)", "IFN gamma levels pg/mL (MLR)": "1500 pg/mL"},
      {"substance": "PD-L2 H15Q/L33P/T47A/S67L/P71S/V89D IgV-Fc (from UniProt Q9BQ51 20-121) (Fc fusion)", "IFN gamma levels pg/mL (MLR)": "1290 pg/mL"},
      {"substance": "PD-L2 H15Q/N32D/S67L/V89D IgV-Fc (from UniProt Q9BQ51 20-121) (Fc fusion)", "IFN gamma levels pg/mL (MLR)": "1290 pg/mL"},
      {"substance": "PD-L2 H15Q/Q72H/V89D IgV-Fc (from UniProt Q9BQ51 20-121) (Fc fusion)", "IFN gamma levels pg/mL (MLR)": "1270 pg/mL"},
      {"substance": "PD-L2 H15Q/R76G/I85F IgV-Fc (first entry) (from UniProt Q9BQ51 20-121) (Fc fusion)", "IFN gamma levels pg/mL (MLR)": "1730 pg/mL"},
      {"substance": "PD-L2 H15Q/S39I/I86T IgV-Fc (from UniProt Q9BQ51 20-121) (Fc fusion)", "IFN gamma levels pg/mL (MLR)": "1420 pg/mL"},
      {"substance": "PD-L2 H15Q/S67L/R76G IgV-Fc (from UniProt Q9BQ51 20-121) (Fc fusion)", "IFN gamma levels pg/mL (MLR)": "1430 pg/mL"},
      {"substance": "PD-L2 H15Q/S67L/R76G/I85F IgV-Fc (from UniProt Q9BQ51 20-121) (Fc fusion)", "IFN gamma levels pg/mL (MLR)": "1320 pg/mL"},
      {"substance": "PD-L2 H15Q/T47A/K65R/S67L/Q82R/V89D IgV-Fc (from UniProt Q9BQ51 20-121) (Fc fusion)", "IFN gamma levels pg/mL (MLR)": "1340 pg/mL"},
      {"substance": "PD-L2 H15Q/T47A/Q72H/R76G IgV-Fc (from UniProt Q9BQ51 20-121) (Fc fusion)", "IFN gamma levels pg/mL (MLR)": "1460 pg/mL"},
      {"substance": "PD-L2 H15Q/T47A/Q82R IgV-Fc (from UniProt Q9BQ51 20-121) (Fc fusion)", "IFN gamma levels pg/mL (MLR)": "1320 pg/mL"},
      {"substance": "PD-L2 H15Q/V89D IgV-Fc (from UniProt Q9BQ51 20-121) (Fc fusion)", "IFN gamma levels pg/mL (MLR)": "1500 pg/mL"},
      {"substance": "PD-L2 I12V/I13V/H15Q/T47A/Q82R/V89D IgV-Fc (from UniProt Q9BQ51 20-121) (Fc fusion)", "IFN gamma levels pg/mL (MLR)": "1530 pg/mL"},
      {"substance": "PD-L2 I13V/H15Q/E44D/V89D IgV-Fc (from UniProt Q9BQ51 20-121) (Fc fusion)", "IFN gamma levels pg/mL (MLR)": "1380 pg/mL"},
      {"substance": "PD-L2 I13V/H15Q/E44V/T47A/Q82R/V89D IgV-Fc (from UniProt Q9BQ51 20-121) (Fc fusion)", "IFN gamma levels pg/mL (MLR)": "1270 pg/mL"},
      {"substance": "PD-L2 I13V/H15Q/I36V/T47A/S67L/V89D IgV-Fc (from UniProt Q9BQ51 20-121) (Fc fusion)", "IFN gamma levels pg/mL (MLR)": "1360 pg/mL"},
      {"substance": "PD-L2 I13V/H15Q/L33F/T47A/Q82R/V89D IgV-Fc (from UniProt Q9BQ51 20-121) (Fc fusion)", "IFN gamma levels pg/mL (MLR)": "1470 pg/mL"},
      {"substance": "PD-L2 I13V/H15Q/Q82R IgV-Fc (from UniProt Q9BQ51 20-121) (Fc fusion)", "IFN gamma levels pg/mL (MLR)": "1430 pg/mL"},
      {"substance": "PD-L2 I13V/H15Q/R76G/I85F IgV-Fc (from UniProt Q9BQ51 20-121) (Fc fusion)", "IFN gamma levels pg/mL (MLR)": "1530 pg/mL"},
      {"substance": "PD-L2 I13V/H15Q/T47A/Q72H/R76G IgV-Fc (from UniProt Q9BQ51 20-121) (Fc fusion)", "IFN gamma levels pg/mL (MLR)": "1470 pg/mL"},
      {"substance": "PD-L2 I13V/H15Q/T47A/Q82R/V89D IgV-Fc (from UniProt Q9BQ51 20-121) (Fc fusion)", "IFN gamma levels pg/mL (MLR)": "1450 pg/mL and 1740 pg/mL"},
      {"substance": "PD-L2 I13V/Q72H/R76G/I86T IgV-Fc (from UniProt Q9BQ51 20-121) (Fc fusion)", "IFN gamma levels pg/mL (MLR)": "1950 pg/mL"},
      {"substance": "PD-L2 I13V/S67L/Q82R/V89D IgV-Fc (from UniProt Q9BQ51 20-121) (Fc fusion)", "IFN gamma levels pg/mL (MLR)": "1370 pg/mL"},
      {"substance": "PD-L2 N24D IgV-Fc (from UniProt Q9BQ51 20-121) (Fc fusion)", "IFN gamma levels pg/mL (MLR)": "1980 pg/mL"},
      {"substance": "PD-L2 S39I/V89D IgV-Fc (from UniProt Q9BQ51 20-121) (Fc fusion)", "IFN gamma levels pg/mL (MLR)": "1310 pg/mL"},
      {"substance": "PD-L2 S67L/I85F IgV-Fc (from UniProt Q9BQ51 20-121) (Fc fusion)", "IFN gamma levels pg/mL (MLR)": "1280 pg/mL"},
      {"substance": "Wild Type PD-L2 IgV-Fc (from UniProt Q9BQ51 20-121) (Fc fusion)", "IFN gamma levels pg/mL (MLR)": "1380 pg/mL"}
    ]},
    {"biological_target": "human PD-L1, full length, expressed on transfected HEK293 cells (human) (UniProt Q9NZQ7)", "sequence (Q9NZQ7 19-290)": "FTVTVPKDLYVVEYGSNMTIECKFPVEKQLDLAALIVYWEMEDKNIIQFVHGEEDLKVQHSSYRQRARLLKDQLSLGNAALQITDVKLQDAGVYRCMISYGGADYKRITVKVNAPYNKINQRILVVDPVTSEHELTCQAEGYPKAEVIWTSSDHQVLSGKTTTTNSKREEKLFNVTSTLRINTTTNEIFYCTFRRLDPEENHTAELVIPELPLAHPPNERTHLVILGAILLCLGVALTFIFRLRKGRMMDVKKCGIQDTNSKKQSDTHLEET", "assay": "flow cytometry, HEK293 cells transfected with human PD-L1", "units": {"MFI at 22.2 nM": "MFI"}, "values": [
      {"substance": "variant CD80 IgV-Fc E35D/T57A/A71D/L85Q (from UniProt P33681 35-141) (Fc fusion)", "MFI at 22.2 nM": 1760},
      {"substance": "variant CD80 IgV-Fc H18Y/A71D/L72P/E88V (from UniProt P33681 35-141) (Fc fusion)", "MFI at 22.2 nM": 1080},
      {"substance": "variant CD80 IgV-Fc L70Q/A71D (from UniProt P33681 35-141) (Fc fusion)", "MFI at 22.2 nM": 1690},
      {"substance": "variant CD80 IgV-Fc M47V/I69F/A71D/V83I (from UniProt P33681 35-141) (Fc fusion)", "MFI at 22.2 nM": 3400},
      {"substance": "variant CD80 IgV-Fc Q27H/E35G/A71D/L72P/T79I (from UniProt P33681 35-141) (Fc fusion)", "MFI at 22.2 nM": 1450},
      {"substance": "variant CD80 IgV-Fc Q27L/E35D/M47I/T57I/L70Q/E88D (from UniProt P33681 35-141) (Fc fusion)", "MFI at 22.2 nM": 1050},
      {"substance": "variant CD80 IgV-Fc T13R/M42V/M47I/A71D (from UniProt P33681 35-141) (Fc fusion)", "MFI at 22.2 nM": 1870},
      {"substance": "variant CD80 IgV-Fc V20I/A71D (from UniProt P33681 35-141) (Fc fusion)", "MFI at 22.2 nM": 3550},
      {"substance": "variant CD80 IgV-Fc V22L/E35G/A71D/L72P (from UniProt P33681 35-141) (Fc fusion)", "MFI at 22.2 nM": 1400}
    ]},
    {"biological_target": "human CD28, full length, expressed on transfected HEK293 cells (human) (UniProt P10747)", "assay": "flow cytometry, HEK293 cells transfected with human CD28", "units": {"MFI at 66.6 nM": "MFI"}, "values": [
      {"substance": "variant CD80 IgV-Fc A26E/E35D/M47L/L85Q (from UniProt P33681 35-141) (Fc fusion)", "MFI at 66.6 nM": 2270},
      {"substance": "variant CD80 IgV-Fc N55I/T57I/I69F (from UniProt P33681 35-141) (Fc fusion)", "MFI at 66.6 nM": 1900},
      {"substance": "variant CD80 IgV-Fc Y31H/E35D/T41S/V68L/K93R/R94W (from UniProt P33681 35-141) (Fc fusion)", "MFI at 66.6 nM": 2450}
    ]},
    {"biological_target": "CD28, endogenously expressed on Jurkat/IL2 reporter cells (human) (UniProt P10747)", "assay": "flow cytometry, Jurkat/IL2 reporter cells (endogenous CD28)", "units": {"MFI at 33.3 nM": "MFI"}, "values": [
      {"substance": "variant CD80 IgV-Fc E24D/E35D/M47L/V68M/E95V/L97Q (from UniProt P33681 35-141) (Fc fusion)", "MFI at 33.3 nM": 15},
      {"substance": "variant CD80 IgV-Fc E35D/D46E/M47L/V68M/T79M/L85M/L97Q (from UniProt P33681 35-141) (Fc fusion)", "MFI at 33.3 nM": 14},
      {"substance": "variant CD80 IgV-Fc E35D/M47L/V68M/E95V/L97Q (from UniProt P33681 35-141) (Fc fusion)", "MFI at 33.3 nM": 14},
      {"substance": "variant CD80 IgV-Fc Q27L/Q33L/E35D/T41S/M47V/N48K/V68M/L85M (from UniProt P33681 35-141) (Fc fusion)", "MFI at 33.3 nM": 15},
      {"substance": "variant CD80 IgV-Fc Q33L/E35D/M47V/T62S/V68M/L85M (from UniProt P33681 35-141) (Fc fusion)", "MFI at 33.3 nM": 15},
      {"substance": "variant CD80 IgV-Fc Q33R/E35D/M38I/M47L/V68M (from UniProt P33681 35-141) (Fc fusion)", "MFI at 33.3 nM": 15},
      {"substance": "variant CD80 IgV-Fc R29C/E35D/M47L/V68M/A71G/L85M (from UniProt P33681 35-141) (Fc fusion)", "MFI at 33.3 nM": 16}
    ]}
  ]
}
